Patent publication US20220242939A1 (BIOARCTIC, published 2022)
Substitutions are numbered along the chain they refer to. Non-standard residues stand in square brackets, D forms with d. No end group written: not given here. Ahx = NCCCCCC(=O)O

T1: negative control peptide AATVGSLAGQPLQER-Acp-C (SEQ ID NO:53) conjugated to BSA (human, not fully specified (residue 17); printed as AATVGSLAGQPLQER-Acp-C; also: C-terminal Cys conjugated to BSA carrier)
T1 construct: BSA carrier; also called 192-206 BSA-conjugated peptide
T1 peptide: AATVGSLAGQPLQER[Ahx]C

T2: L198 N-terminal neo-epitope peptide LAGQPL-Acp-C (SEQ ID NO:52) conjugated to BSA (human, not fully specified (residue 8); printed as LAGQPL-Acp-C; also: C-terminal Cys conjugated to BSA carrier)
T2 construct: BSA carrier; also called L198-BSA peptide
T2 peptide: LAGQPL[Ahx]C

B1: 23D5, recombinant IgG2c antibody (antibody, V domains shown)
VH: EVQLVESGGGLVKPGGSLKLSCSASGFTFSRYAMSWVRQSPEKRLEWVAEINSGGSYSFYSDTVTGRFTISRDNAKNTLFLEMSSLRSEDTAIYYCARQLSGTDYYGTDYWGQGTSVTVSS
VL: DVLMTQTPLSLPVSHGDQASISCRSSQSLLYSNGNTYLEWYLQKPGQSPKLLIYKVSNRFSGVPDRFSGSGSGTDFTLKISRVEAEDLGVYYCFQGSHVPYTFGGGTKLEIK
B2: 17G4, recombinant IgG2c antibody (antibody, V domains shown)
VH: B1 VH with S101T
VL: B1 VL
B3: 7B10, recombinant IgG2c antibody (antibody, V domains shown)
VH: AVQLVESGGGLVKPGRSLKLSCAASGFTFSSYAMSWVRQFPDKRLDWVAEISSGGGSTNYLDTVTGRFTISRDNAKNTLYLEMNSLRSEDTAMYYCARQLVGTDYYGTDYWGQGTSVTVSS
VL: B1 VL with H15L, S28N, L29I, L30V
notes: also called 7610
B4: 4E6, recombinant IgG2c antibody (antibody, V domains shown)
VH: EVQLVESGGDLVKPGGSLKLSCAASGFTFSSYAMSWVRQSPEKRLEWVAEISGSGSRDHYTDSVTGRFTVSRDNAKNTLYLEMSSLRSEDTAIYYCARQLTGTDYYGTDYWGQGTSVTVSS
VL: B1 VL with T7I, H15L, L29I, L30V, K44R, V99L
notes: also called recombinant anti-G200 antibody 4E6
B5: 28F2, recombinant IgG2c antibody (antibody, V domains shown)
VH: QIQLVQSGPDLKKPGETVKISCKASGYTFTNYAMHWMKQAPGKALKWMGWINTYTGEPTFADDFKGRFAFSLETSASTAYLQINSLKNEDMATYFCAREGYYDRSHYFDYWGQGTTLTVSS
VL: B1 VL with H15L, Q27L, L30V, Y31H, S32G, N33D, F94L, V99I, Y101F, G105S
B6: 7C7, recombinant IgG2c antibody (antibody, V domains shown)
VH: EVQLVESGGGLVKPGGSLRLSCAASGFTFSSFAMSWVRQSPERRLEWVAEISRGGGYAFYSDTVTGRFTISRDNARNTLFLEMGSLRSEDTAMYYCSRQLTGTDYYAMDYWGQGTSVTVSS
VL: B1 VL with M4L, P12F, H15L, L29I, L30V, S32T, H98Q, I111L

These binders were tested against T3, recombinant C-terminal ApoE fragment G200-HIS (ApoE-G200-H299-10xHIS) (human, UniProt P02649 218-317) (assay: BLI (Octet RED384), G200-HIS captured on anti-HIS biosensor, antibody as analyte, 1:2 bivalent analyte fit).
T3 construct: also called G200-HIS fragment
T3 sequence (P02649 other isoform, or with tags, fused parts or gaps limits assumed): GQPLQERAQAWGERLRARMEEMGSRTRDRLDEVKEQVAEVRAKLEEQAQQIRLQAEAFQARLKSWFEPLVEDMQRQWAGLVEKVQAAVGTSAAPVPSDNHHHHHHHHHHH
Description: Selectivity evaluation and KD determination of recombinant antibodies by bio-layer interferometry: Binding interactions between the N-terminal neo-epitope peptide G200 (SEQ ID NO:50) conjugated to BSA (ligand) and the recombinant antibodies produced in Example 11 (analyte) were evaluated using an Octet RED384 instrument (ForteBio). All analyzed proteins were diluted in 1×Kinetics Buffer (ForteBio).
To analyze the antibody-target interaction and to determine the binding affinity of the recombinant antibodies for recombinant C-terminal ApoE fragment G200-HIS (SEQ ID NO:48), anti-HIS capture biosensors (HIS1K) were used. In the first step (loading step), HIS-tagged recombinant C-terminal ApoE fragment was captured onto the surface of the biosensor. Next, a concentration gradient of pure antibodies was prepared ranging from 150 nM to 2.5 nM in 2-fold serial dilutions. Subsequently, the HIS1K biosensors with ligand were dipped in wells containing diluted antibodies, and the association phase was monitored for 600 s. For monitoring the dissociation phase, the HIS1K biosensors with ligand were moved to a well containing 1× Kinetics Buffer and the dissociation was monitored for 1000 s. For evaluation of the kinetic experiments, the Octet Data Analysis software was used. All values collected from interaction analysis were blank subtracted, and a 1:2 binding kinetics global fit model (bivalent analyte) was used for the evaluation.
Selectivity evaluation and KD determination of recombinant antibodies by bio-layer interferometry: Binding interactions between the recombinant G200 C-terminal ApoE fragment (ligand) and recombinant antibodies (analyte) were evaluated by using an Octet RED384 instrument (ForteBio).

Row | Kd [nM] | Binder
1 | 5.2 | B1
2 | 0.8 | B2
3 | 0.8 | B3
4 | 0.9 | B4
5 | 9.7 | B5
6 | 1.9 | B6

Target: T1, negative control peptide …
Assay: direct ELISA, target coated at 1 ug/ml, antibody in 3-fold dilutions from 500 ng/ml, OD 450 nm
Description: (§1) Selectivity evaluation of recombinant antibodies by direct ELISA: The direct ELISA described below was used to evaluate the binding selectivity of the recombinant antibodies produced in Example 11.
(§2) The screening was performed according to standard ELISA protocols. Briefly, 1 μg/ml solutions of BSA-conjugated neo-epitope peptides, recombinant C-terminal ApoE fragment, negative control peptide and full-length ApoE were prepared by dilution in PBS. 50 μl/well were added to an ELISA half-area 96 well microtiter plate, the plate was sealed with adhesive sealer and incubated over night at 4° C. After discarding the solution, the plates were blocked with 150 μl/well of protein-free blocking solution (Pierce) for 1 h at room temperature with shake (900 rpm). The plates were washed four times with washing buffer containing 0.28 mM NaH₂PO₄, 2.5 mM Na₂HPO₄, 150 mM NaCl, 0.1% TWEEN®-20 and 0.0075% Kathon CG. Generated recombinant antibodies of interest were serially diluted 3-fold with a starting dilution at 0.5 μg/ml (mixed 1:1 with dilution buffer: PBS with 0.1% BSA and 0.05% TWEEN®-20). An anti-ApoE C-terminal antibody was used as a reference antibody (ApoE E-8 mouse monoclonal, cat. no. sc-393302; Santa Cruz Biotechnology). 50 μl/well were added into the ELISA plates and incubated for 2 h at room temperature with shake (900 rpm). The plates were washed four times as described previously. […] After another wash (as described previously), 50 μl/well of K-Blue® aqueous substrate (Neogen) were added, and the reaction was stopped after 5-15 min with 50 μl/well of 0.5 M […]. The optical density at 450 nm was read using an ELISA reader (Tecan).

Row | binding result | Binder
7 | no binding (tested: 500 ng/ml) | B1
8 | no binding (tested: 500 ng/ml) | B2
9 | no binding (tested: 500 ng/ml) | B3
10 | no binding (tested: 500 ng/ml) | B4
11 | no binding (tested: 500 ng/ml) | B5
12 | no binding (tested: 500 ng/ml) | B6

Target: T2, L198 N-terminal neo-epitope peptide …
Assay: as above
Description: as §1, §2

Row | binding result | Binder
13 | no binding (tested: 500 ng/ml) | B1
14 | no binding (tested: 500 ng/ml) | B2
15 | no binding (tested: 500 ng/ml) | B3
16 | no binding (tested: 500 ng/ml) | B4
17 | no binding (tested: 500 ng/ml) | B5
18 | no binding (tested: 500 ng/ml) | B6

The binders below were run against T3, recombinant C-terminal ApoE fragment … (assay: second direct ELISA, G200-HIS coated at 0.1 µM).
Description: as §2, with “(Tecan). The optical density was plotted against the antibody concentration to generate concentration-response curves (FIG. 16).” for “(Tecan).”
These were added in the same molarity (0.1 μM) to provide an equal number of molecules available for binding by the antibodies (BSA-coupled peptides were coated at 1 μg/ml as before).

Row | EC50 [µg/mL] | Binder
19 | 0.0101 | B1
20 | 0.0079 | B2
21 | 0.0107 | B3
22 | 0.0095 | B4
23 | 0.0215 | B5
24 | 0.0181 | B6

The binders below were run against T3, recombinant C-terminal ApoE fragment … (assay: SPR (Biacore 8K), G200-HIS amine-coupled on CM5, antibody as analyte, bivalent analyte fit (kd1)).

Row | koff [s⁻¹] | Binder
25 | 0.0105 | B1
26 | 0.0024 | B2
27 | 0.0038 | B3
28 | 0.006 | B4
29 | 0.0035 | B5
30 | 0.0029 | B6
